Assay: yeast display, Sf9 membrane polyspecificity reagent, FACS + sequencing; frameworks hold sequencing errors
Method in brief: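 Synthetic nanobody libraries on Saccharomyces cerevisiae BJ5465 were galactose-induced for 36–48 hours, stained 1 hour at 4 °C with 10% biotinylated, detergent-solubilized Sf9 membrane reagent and enriched on streptavidin microbeads. FACS then separated cells into low and high (top ~1%) gates by anti-HA (expression) and streptavidin (reagent binding) fluorescence. Genes were colony-PCR amplified, MiSeq 2 × 250 sequenced and CDR-length filtered. A clone's polyreactivity label is that of its gate of origin.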

Sequence	polyreactivity (PSR sort gate)
QVQLVESGGGLVQAGGSLRLSCAASGYNFGWYAMGWYRQAPGKERELVAGISSAGSTNYADSVKGRFTISRDNAKNTVYLQMNSLKPEDTSVDYCARDKWGLRYAPTVDYWGQGTQVTVSS	high polyreactivity
QVQLVESGGGLVQAGGSLRLSCAASGSIAHYAMGWYRQDPGKERELVAAINWSGGSTNYADSVKGRFTISRDNAKNTVYLQMNSMKPEDTAVYYCSAQKRGPGYPYYYWGQGTQVTVSS	high polyreactivity
QVQLVESGGGLVQAGGSLRLSCAASGSIFEPNAKGWYRQAPGKERELVAVINYSGGSTYYADSVKGRFTISRDNAKNTVYLQMNSLKPEDTAVYYCAASHYHYRYGTPQPEYNYWGQGTQVTVSS	low polyreactivity
QVQLVESGGGLVQAGGSLRLSCAASGIIFVENAMGWYRQAPGKERDLVASGDSTYADSVKGRFTIARDNAKNTVYLQMNSLKPEDNAVYYCNTDGYPRLYIYDYWGQGTQVTVSS	low polyreactivity
QVQHVESGGGLVQAGGSLRLSCAASGFIFPYYAMGWYRQAPGKERELVAAINSGTSTYYADSVKGRFTISRDNAKNTVYLQMNSLKPEDTAVYYCAAAYPLWYEYDYWGQGTQVTVSS	low polyreactivity
QVQLVESGGGLVQAGGSLRLSCAASGSTFTWNAMGWYRQAPGKERELVASITWGGGGTYYADSVKGRFTISRDNAKNTVYLQMNSLKPEDTAVYYCAAGLWSPAYRGGYYYWGQGTQVTVSS	low polyreactivity
QVQLVESGGGLVQAGGSLRLSCAASGRTFYINAMGWYRQAPGKERELVAAITWSGGRTYYADSVKGRFTISRDNAKNTVYLQMNSLKPEDTAVYYCNTRSYSYYVPYRYDYWGQGSQVTVSS	high polyreactivity
QVQLVESGGGLVQAGGSLRLSCAATGRIFTYMGWYRQAPGKERELVAGISWRGTSTYYADSVKGRFTISRDNAKNTVYLQMNSLKPEDTAVYYCAARWAYHVRGDYWGQGTQVTVSS	low polyreactivity
QVQLVESGGGLVQAGGSLRLSCAASGIIFLNYAMGWYRQAPGKERELDAGITGRGGITYYTDSVKGRFTISRDNAKNTVYLQMNSLKPEDTAVYYCAARRYRFAGDYRMYYWGQGTQVTVSS	high polyreactivity
QVQLVESGGGLVQAGGSLRLSCAASGSTFRGYAMGWYRQVPGKERELVADISWSGTSTYYADSVKGRFTISRDNAKNTFYLQLNSVIPEDTAVYYCAKGGRDRSRKYYYWGQGTQVTVSS	high polyreactivity
QVQLVESGGGLVQAGGSLRLSCAASGFIFQRNAMGWYRQAPGKERELVAAISWTGGSTYYADSVKGRFTISRDNAKNTVYLQMNSLKPDVTAVYYCAKYGSGPYGYWGQGTQVTVSS	high polyreactivity
QVQLVESGGGLVQAGGSLRLSCAASGSTISRYAMGWYRQAPGKEREFVAAISWRGGSTYYADSVKGRFTISRDNAKNTVYLQLNSLKPEDTAVYYCNADYRYARKGHYGKFGYWGQGTQVNVSS	high polyreactivity
LVQLVESGGGLVQAGGSLRLSGAASGSPFRQNAMGWYRQAPGKERELVAAITWRGDNTYYADSVKGRFTISRDNAKKPVYFQRNSLKPDDTAVDYCAARWSYRLYWGYGYWGQGTEVTVSS	low polyreactivity
QVQLVESGGGLVQAGASLRLSCAASGRTFNVYAMGWYRQAPGKERELVASISSGTSTNYADSVKGRFTISRDNAKNTVYLQMNSLKPEDTAVYYCNADFVWNGYSGRIRDYYWGQGTQVTVSS	low polyreactivity
QVQLVESGGGLVQAGVSLRLSCAASGIIFAGYVMGWYRQAPGKARELVAAISYRGGSTNYADSVKGRFTISRDNAKNTVYLQMNSLKPEDTAVYYCNRYSRDSRYGYLKFGYDYWGQGTQVTVSS	high polyreactivity
QVQLVESGGGLVQAGGSLRLSCAASGRTFPYYTMGWYIQAPGKERELVAAIDGSGDNTYYADSVKGRFTISRDYAKNTVYLQLNSLKPEDNAVYYCTAEQWWSLDYWGQGTQVTVSS	low polyreactivity
QVQLVESGGGLVQAGGSLRLSSAASGFIFRGYAMGWYRQAPGKERELVAVISRSGTSTYYADSVKGRFTFSRDNAKNTVYLQMNSLKPEDTAVYYCAVLNYAGKYYYWGQGTQVTVSS	high polyreactivity
QVQLVESGGGLVQAGGSLRLSCAASGSTIINYAMGWYRQAPGKERELVAVITSDDGSTYYADSVKGRFTISRDNAKNTVYLQMNSLKPEDTAVYYCAADYYDQRYRPGPWYDYWGQGSQVTVSS	low polyreactivity
QVQLVESGGGLVQAGGSLRLSCAASARTFRQYAMGWYRQSPGKERELVAAIRTNGGRTYYADSVKGRFTISRDNAKNTVYLQMNSLKPEDTAVYYCAVRPRPGYYYWGQGTQVTVSS	high polyreactivity
QFQLVESGGGLVQAGGSLRLSCAASGITFDVNAMGCYIQAPGKERELVASITAGGNTYYSDSVKGRFTISRDNAKNTVYLQMNSLKPVDTAVYFCAAVSTSLYCAGYDYWGQGTQVTVSS	low polyreactivity
QVQLVESGGGLVQAGGSLRLSCAASGSTFVYYAMGWYRQAPGKEREFVAGITRRTGSTYYADSVKGRFTISRDNAKNTVYLQMNSLKPEDTAVYYCAKRDARATPFGYWGQGTQVTVSS	high polyreactivity
QVQLVESGGGLVQAGGSLRLSCAASGRIFGDYGMGWYRQAPGKERELVAAITDRGGTTYYADSVKGRFTISRDNAKNTVYLQMNSLKPEDTAVYYCNARQSDIFDYDYWGQGTQVTVSS	low polyreactivity

Sequence	polyreactivity (PSR sort gate)
QVQLVESGGGLGQAGGSLRLSCAASGFTFRKYVMGWYRQAPGKERALVAAITSGGSTNYADSVKGRFTISRDNAKNTVYLQMNSVIPEDTAVYYCATVPGARVHYPTGDYWGQGTQVTVSS	high polyreactivity
QVQLEESGGGLVQAGGSLRLICAASGRIFWLNAMGWYRQAPGKEREFVASITYGSDSTYYADSVKGRFTISRDNAKNTVYLQMNSLKPEDTAVYYCNREGWHYGPYVYWGQGTQVTVSS	low polyreactivity
QVQLEESGGGLVQAGGSLRLSCAASGFIIHLYGMGWYRQAPGKERELVAAISSGGRTYYADSVKGRFTISRDNAKNTVDLQMNSMIPEVTAVSYSAVFVAYLYSYYYWGQGTQVTVSS	low polyreactivity
QVQLVESGGGLVQAGGSLRLSCAASGRIFGDYAMGGSRQAPGKERELVAVISVGGRTSYADSVKGRFTISRDNAKNTVYLQMNSLKPEDTAVYYCATRLSTRDGGYWGQGTQVTVSS	low polyreactivity
QVQLVESGGGLVQAGGILRLSCAATGTTFSYYPMGWYRQAPGKERELVAAITNGGSTYYADSVKGRFTISRDNAKNTVYLQMNSLKPEDTAVYYCAADVSYWPYARYQRYPRYDYWGQGTQVTVSS	low polyreactivity
QVQLVESGGGLVQAGGSLRLSCAASGSIFNGYAMGWYRQAPGKERELVAAISWSGVGTYYADSVKGRFTISRDNAKNTVYLEMNSLKPEDTAVYYCNAVATHDWLRVDTYEYWGQGTQVTVSS	low polyreactivity
QVQLVESGGGLVQAGGSLRLSCADSGFTFTYYDMGWYRQAPGKERELVAAISSGGSTNYADSVKGRFTISRDNAKNTVYLQMNSLKPEDTAVYYCAASITHYWYGYWGQGTQVTVSS	high polyreactivity
QVQLVESGGGLVQAGGSLRLSCAASGGTFRYYTMGWYRQAPGKERELVASISGGGRTYYADSVKGRFTISRDNAKITVYLQMNSLKPEDTAVYYCNARNRVYYTLSGYGYWGQGTQVTVSS	high polyreactivity
QVQLVESGGALVQAGGSLRLSCAASGSTLAYNAMGWYRQAPGKERELVAGIRGSGGSTYYADSVKGRFTISRDNAKNTVYLQMNSLKPEDTAVYYCNADSSVGHPPDGEYWGQGTQVTVSS	low polyreactivity
QVQLVESGGGLVQAGGSLRLSCAASGRTFFDYAMGWYRQAPGKEWELVAAITASGSSTYYADSVKGRFTISRDNAKNTVYLQMNSLKPDDTAVYYCAAGASANKKITSYDYWGQGTQVTVSS	low polyreactivity
QVQLVESGGGLVQAGGSLRLSCAASGSTFPSNAMGWYRQAPGKERELVAAISRGGGTTYYADSVKGRFTISRDNAKNTVYLQMNSLKPEDTAVYYCATRGSVGWFDGGGYWGQGTQVTVSS	high polyreactivity
QVQLVESGGGLVQAGGSLRLSCAASGRTFSSNAMGWYRQAPGKERELVASISFRGGRTYYADSVKGRFTISRDNAKNTVYLQMYSLKPEDTAVYYCVSGTKRTGYGYWGQGTQVTVSS	high polyreactivity
QDQLVESGGGLVQAGGSLRLSCAASGSMFDYYAMGWYRQAPGKERELVAAISGSGSRTYYADSVKGRFTISRVTAKNTVYIQMNRLKPEDTAFYYCAAESVVYDIVGYEYWYDYYWGLGTQVTVSS	high polyreactivity
QVQLVESGGGLVQAGGSLRLSCAASGFIFYRYAMGWYRPAPGKERELVAAISRSGGTTYYADSVKGRFTISRDNAKNTVYLQMNSLKPEDTAVYYCNVKRGTIGGYYYWGQGTQVTVSS	high polyreactivity
QVQLVESGGGLVQSGGSLRLSCAASGRIFARNAMGWYRQAPGKEREFVAAITFSGGSTYYADSVKGRFTISRDNAKNTVYLQMNSLKPEDTAVYYCAARSWRVLTREDYWGQGTQVTVSS	high polyreactivity
QVQLVESGGGLVQAGGSLRLSCAASGSIFYQYAMGWYRQAPGTERELVAAITWIGSPNYADSVKGRFTISRDNAKNTVYLQMNSLKPEDTAVYYCNTDPYVLQKYDYWGQGTQVTVSS	low polyreactivity
QVQLVESGGGIVQAGGSLRLSCAASGFLYFFYAMGWYRQAPRKQRELVAANSDGVSTYYADSVKGRFTISRDNAKNTVYLQMNSLKPEDTAVFYCAVSRGDDPEFDYWGQCTQVTVSS	low polyreactivity
QVQLVESGGGLVQAGGSLRLSCAASGSIFYPYAMGWYRQAPGKERELVATINEDGGSTYYADSVKGRFTISRDNAKNTVYLQMNSLKPEDTAVYYCNTDHFEDYHTDFWSDYEYWGQGTQVTVSS	low polyreactivity
QVQLVESGGGIVQAGGSLRLSCAASGSIFDKNAMGWYRQAPGKERELVAAIDSGDTYYADSVKGRFTISRDNAKNTVYLQMNSLKPEDTAVYYCAADDVQYEYDYWGQGPQVTVSS	low polyreactivity
QVQLVESGGGLVQAGGSLRLSCAASGNIFSAYTMGWYRQAPGKERELVAAITGGTSTHYADSVKGRFTISRDNAKNTVYLQMNSLKPEDTAVYYCAADQGRYGIIGWDDYWGQGTQVTVSS	low polyreactivity
QVQLVESGGGLVQAGGSLRLSCAASGRTFYFNGMGWYRQAPGKERELVATITASGTITYYADSVKGRFTISRDNAKNTVYLQMNSLKPEDTAVYYCAARQRGYYYSRSYDYWGQGTQVTVSS	high polyreactivity

Source: the nanobody polyreactivity screen of Harvey et al. (2022)
